Here are results for 40 sequences from the nanobody polyreactivity screen of Harvey et al. (2022).

A short description of the data set: yeast display, Sf9 membrane polyspecificity reagent, FACS + sequencing; frameworks hold sequencing errors. Summed up:
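A nanobody's polyreactivity label depends on the gate it was sorted from. Yeast display cells were stained with 10% biotinylated, detergent-solubilized Sf9 membrane reagent for 1 hour at 4 °C, enriched on streptavidin microbeads and sorted by FACS. The low and high (top ~1%) gates were set on anti-HA fluorescence for expression and streptavidin fluorescence for reagent binding.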
Take “QVQLVESGGGLVQAGGSLRLSCAASGIYYNAMGWYRQAPGKERELVAAITTGDRTNYADSVKGRFTISRDNAKNTVYLQMNCLKPEDTAVYYCNAVVERLSSTARDFAYDYWGQGTQVTVSS”: the “polyreactivity (PSR sort gate)” value is “low polyreactivity”.
For the sequence “QVQLVESGGGLVQAGGSLRLSCAASGKIFSYNAMGWYRQAPGKERELVAAISRSGGSTYYADSVKGRFTISRDNAKNTVYLQMNSLKPEDTAVYYCAADWRGRKYDYWGQGTQVTVSS”, the “polyreactivity (PSR sort gate)” value is “high polyreactivity”.
As for “QVQLVESGGGLVQAGGSLRLSCAASGLIFADYVMGWYRQAPGKERELVATINQGGGSTYYADSVKGRFTISRDNAKNTVYLQMNSLIPEDTAVYYCAATWALLYAIFESYDYWGQGTQVTVSS”, the “polyreactivity (PSR sort gate)” value is “low polyreactivity”.
“QVQLVESGGGLVQAGGSLRLSCAASGLIFAKYAMGGYRQAPGKERELVAAISYSGGSTFYADSVKGRFTISRDNAKNTVYLQMNSLKPEDTAVYYCAARDSRVGYYWFVRKEYYYWGQGTQVTVSS”: the “polyreactivity (PSR sort gate)” value is recorded as “high polyreactivity”.
In the case of “QVQLVESGGGLVQAGGSLRLSCAASGLIFANNAMGWYRQAPGKERELVAVISRGGRTYYADSVKGRFTISRDNAKNTVYLQMNSLKPEDTAVYYCAKPVLVGLGSRYDYWGQGTQVTVSS”, the “polyreactivity (PSR sort gate)” value is “high polyreactivity”.
To “QVQLVESGGGLVQAGGSLRLSCAASGLIFARYVMGWSRQAPGKERELVADIDKGGGSTYYADSVKGRFTISRDNAKNTVYLQMNSLKPEDTAVYYCNADFDGWWWDDYWGQGTQVTVSS” belongs “high polyreactivity”; to “QVQLVESGGGLVQAGGSLRLSCAASGLIFASYAMGWYRQAPGKERELVAAISWSGGSTYYADSVKGRFTISRDNAKNTVYLQMNSLKPEDTAVYYCAAKRYAYGSLDYWGQGTQVTVSS”, “high polyreactivity”.
To “QVQLVESGGGLVQAGGSLRLSCAASGLIFATNAMGWYRQAPGKERELVATITRSAGRTYYADSVKGRFTISRDNAKNPVYLQMNSLKPEDTAVYYCAASYWDTEPGYREYDYWGQGTQVTVSS” belongs “low polyreactivity”.
For “QVQLVESGGGLVQAGGSLRLSCAASGLIFATYAMGWYRQAPGKERELVAAISIRGGITYYADSVKGRFTISRDNAKNTVYLQMNSLKPEDTAVYYCAARYSRAGISHRMDYWGQGTQVTVSS”, the “polyreactivity (PSR sort gate)” value is listed as “high polyreactivity”.
In the case of “QVQLVESGGGLVQAGGSLRLSCAASGLIFAVYTMGWYRQAPGKERELVAAITRRSTRTYYADSVKGRFTISRDNAKNTVYLQMNSLKPEDTAVYYCAADRGSSGAAFEYWGQGTQVTVSS”, the “polyreactivity (PSR sort gate)” value was “low polyreactivity”.
For “QVQLVESGGGLVQAGGSLRLSCAASGLIFDKYAMGWYRQAPGKERELVAAITRSSGTTYYADSVKGSFTISRDNAKNTVYLQMNSLKPEDTAVYYCATDVDKSLYDYWGQGTQVTVSS” the value was “low polyreactivity”; for “QVQLVESGGGLVQAGGSLRLSCAASGLIFDSYDMGWYRQAPGKERELVAAIRRNGGSTYYADSVKGRFTISRDNAKNTVYLQMNSLKPEDTAVYYCAVDNSGYSGVYWVKMDYWGQGTQVTVSS”, “low polyreactivity”; for “QVQLVESGGGLVQAGGSLRLSCAASGLIFESNAMGWYRQAPGKERELVAAITTNGGSTYYADSVKGRFTISRDNAKNTVYFQMNSLKPEVTAVYYCAALGLHQVIEYDYWGQGTQVTVSS”, “low polyreactivity”.
For “QVQLVESGGGLVQAGGSLRLSCAASGLIFESYAMGWYRQAPRKERELFAAITRSGARTYYADSVKGRFSISRDNAKNTVYLQMNILKPEDTAVYYCAAAPWYFFDQYFNGISFGYYYWGQGTQLTVSS” the value was “high polyreactivity”; for “QVQLVESGGGLVQAGGSLRLSCAASGLIFEYYAMGWYRQAPGKERELVAVINWSGASTYYADSVKGRFTITRDYAKNTVYLQMNSLKPEDTAVYYCAAGVLITGLRFDYWGQGTQVTVSS”, “low polyreactivity”; for “QVQLVESGGGLVQAGGSLRLSCAASGLIFFTYAMGWYRQAPGKERELVATISRGGRTKYADSVKGRFTISRDNAKNTVYLQMNSLKPEDTAVSYCAAYLSRSYYAYDYWGQGTQVTVSS”, “high polyreactivity”.
As for “QVQLVESGGGLVQAGGSLRLSCAASGLIFGDYAMGWYRPAPGKERELVAAITGSVTRTYYADSVKGRFTISRDNAKNTVYLQMNSLKPEDTAVYYCATRVHYIGFYDYDYWGQGTQVTVSS”, the “polyreactivity (PSR sort gate)” value is “low polyreactivity”.
For “QVQLVESGGGLVQAGGSLRLSCAASGLIFGGYAMGWYRQAPGKERELVAAIYWDDGDTYYADSVKGRFTISRDNAKNTVYLQMNSLKTEDTAVYYCNAAGALIFGEGYYVEYDYDYWGQGTQVTVSS” the value was “low polyreactivity”.
For “QVQLVESGGGLVQAGGSLRLSCAASGLIFGGYAMGWYRQAPGKERELVATITSGGSTNYADSVKGRFTISRDNAKNTVYLQMNSLKPEDTAVYYCAAAERQGFPSVYPTYQWDYDYWGQGTQVTVSS” the value was “low polyreactivity”.
To “QVQLVESGGGLVQAGGSLRLSCAASGLIFGNNAMGWYRQAPGKERELVAGIDWSGGSTYYADSVKGRFTISRDNAKNTVDLQMNSLKPEDTAVYYCNAALYVSGHYPNDYWGQGTQVTVSS” belongs “low polyreactivity”; to “QVQLVESGGGLVQAGGSLRLSCAASGLIFGRNAMGWYRQAPGKERELVAAISYRGGSTYYADSVKGRFTISRDNAKNTVYLQMNSLKPEDTAVYYCNRVWYAWGTGYDYWGQGTQVTVSS”, “high polyreactivity”; to “QVQLVESGGGLVQAGGSLRLSCAASGLIFGRYAMGWYRQAPGKERELVAAITCGTNTNYADSVKGRFTISRDNAKNTVYLQMNSLKPEDTAVYYCGKASGRCSLARGATYSVDYWGQGTQVTVSS”, “high polyreactivity”.
Turning to “QVQLVESGGGLVQAGGSLRLSCAASGLIFGSYAMGWSRQAPGKERELVAAISRSGGSTYYADSVKGRFTISRDNAKNTVYLQMNSLKPEDTAVYYCAARGYPLGIGRIKRNYWGQGTQVTVAS”, the “polyreactivity (PSR sort gate)” value is recorded as “high polyreactivity”.
“QVQLVESGGGLVQAGGSLRLSCAASGLIFGSYAMGWYRQAPGKEMELVAAISWSGGSTNYADSVKGRFTISRDNSKNTVDLQMNSLKPEDTAVYYCAARGYPLGIGRIKRNYWGQGTQVTVSS”: the “polyreactivity (PSR sort gate)” value is given as “high polyreactivity”.
Consider “QVQLVESGGGLVQAGGSLRLSCAASGLIFGSYVMGWYSQAPGKERELVAAISTSGGRTYYADSVKGRFTISRDNATNTVYLQMNSLKPEDTAVYFCAASRWHGYNYWGQGTQVTVSS”, for which the “polyreactivity (PSR sort gate)” value is recorded as “high polyreactivity”.
For “QVQLVESGGGLVQAGGSLRLSCAASGLIFGVNAMGWYRQAPGKERELVAAISRDSDTNYADSVKGRFTISRDNAKNTDYLQMNSLKPEDTAVYYCNAYSEWPVPSPPRSQSLDYWGQGTQVTVSS” the value was “low polyreactivity”; for “QVQLVESGGGLVQAGGSLRLSCAASGLIFGWYAMGWYRQAPGKERELVAGISGSGGITYYADSVKGRFTISRDNAKNTVYLQMNSLKPEDTAVYYCAARPGYVHIDFDYWGQGTQVTVSS”, “low polyreactivity”; for “QVQLVESGGGLVQAGGSLRLSCAASGLIFGYNAMGWYRQAPGKEREFVAGISVIDGRTYYADSVKGRFTISRDNAKNTVYLQMNSLIPEDTAVYYCAADRWYKYYFLTYGYWGQGTQVTVSS”, “low polyreactivity”.
“QVQLVESGGGLVQAGGSLRLSCAASGLIFGYNAMGWYRQAPGKEREFVAGISVIDGRTYYADSVKGRFTISRDNAKNTVYLQMNSLKPEDTAVYYCAADRWYKYYFLTYGYWGQGTQVTVSS”: the “polyreactivity (PSR sort gate)” value is “low polyreactivity”.
To “QVQLVESGGGLVQAGGSLRLSCAASGLIFGYNAMGWYRQAPGKERELVAAISSSGGSTSYADSVKGRFTISRDNAKNTVYLQMNSLKPEDTAVYYCAAKPGRYADYDYNSWGQGTQVTVSS” belongs “low polyreactivity”.
For “QVQLVESGGGLVQAGGSLRLSCAASGLIFGYNAMGWYRQAPGKERELVAAISWSGGRTYYADSVKGRFTISRDNAKNTVYLQMNSLKPEDTAVYYCAAVVRHSYFRDDHWGQGTQVTVSS” the value was “high polyreactivity”.
With “QVQLVESGGGLVQAGGSLRLSCAASGLIFGYYAMGWYRQAPGKERELVAAISSSGTRTYYADSVKGRFTISRDNAMNTVYLQMNSLKPEDTAVYYCNADSYGSRYEYWGQGTQVTVSS”, the “polyreactivity (PSR sort gate)” value is “high polyreactivity”.
As for “QVQLVESGGGLVQAGGSLRLSCAASGLIFHYYAMGWYRQAPGKERELVAAISSGGSTNYADSVKGRFTISRDNAKNTVYLQMNSLKPLDTAVYYCAARSGARRGNVYVYYEYYYWGQGTQVTVSS”, the “polyreactivity (PSR sort gate)” value is on record as “low polyreactivity”.
For “QVQLVESGGGLVQAGGSLRLSCAASGLIFITYAMGWYIQAPGKERELVATITLRGGSTYYADSVKGRFTISRDNAKNTVYLQMNSLKPEDTAVYYCAADVGYWGRSRGYPSDDYDYWGQGTQVTVSS”, the “polyreactivity (PSR sort gate)” value is recorded as “low polyreactivity”.
Regarding “QVQLVESGGGLVQAGGSLRLSCAASGLIFKFYAMGWYRQAPGKERELVARISSCGGSTYYADSVKGRFTMSRDNAKNTVYLQMNSLKPEDTAVYYCAAGDYYGDRYARSSIFSYYYWGQGTQVTVSS”, the “polyreactivity (PSR sort gate)” value was “high polyreactivity”.
To “QVQLVESGGGLVQAGGSLRLSCAASGLIFKSYAMGWYRQAPGKERELVAAITWSGGRTYYADSVKGRFTISRDNAKNTVYLQMNSLKPEDTAVYYCAGREYLPPYYYWGQGTQVTVSS” belongs “high polyreactivity”; to “QVQLVESGGGLVQAGGSLRLSCAASGLIFKYYAMGWYRPAPGKERELVAAITGRGGSTYYADSVKGRFTISRDNAMNTVYLQMNSLKPEDTAVYYCARRRTYSFNPVTYDWGQGTQVTVSS”, “high polyreactivity”; to “QVQLVESGGGLVQAGGSLRLSCAASGLIFLGYAMGWYRQAPGKERELVASIRTGGSTSYADSVKGRFTISRDNAKNTVYLQMNSLKPEDTAVYYCNARDYASGTEGDYWGQGTQVTVSS”, “low polyreactivity”.
For “QVQLVESGGGLVQAGGSLRLSCAASGLIFLYNAMGWYRQAPGKERELVAAISRSGGSTYYADSVKGRFTISRDNAKNTVYLQMNSLKPEDTAVYYCNARWPLGVSRGGMGYWGQGTQVTVSS” the value was “high polyreactivity”; for “QVQLVESGGGLVQAGGSLRLSCAASGLIFNEYAMGWYRQAPGKERELVAAISWSDGGTSYADSVKGRFTISRDNAKNTVYLQMNSLKPEDTAVYYCAKGPRGAHRTHGAYVEMEYWGQGTQVTVSS”, “low polyreactivity”.
